Laboratory results from US20250049953A1, “TREATMENT AND METHOD FOR INHIBITING LATE NA CURRENT” (THE TRUSTEES OF COLUMBIA UNIVERSITY IN THE CITY OF NEW YORK, priority 2022, published 2025).

Target: T1, wild-type NaV1.5 (Homo sapiens, UniProt Q14524)
T1 construct: expressed in transfected cells; host or cells: HEK293 (ATCC CRL1573)
Assay: Phosphorylation-dependent late Na current, wild-type NaV1.5 co-expressed with PKAcat or CaMKIIT286D in HEK293 cells
Type: cell-based
Excerpt: As such, we sought to determine whether “protective” FHF variants may inhibit phosphorylation-dependent INa,L. To maximally upregulate INa,L, we co-expressed wild-type NaV1.5 with either (1) the catalytic Cα subunit of protein kinase A (PKA) or (2) a constitutively-active Ca^2+/CaM dependent kinase II (CaMKIIT286D) mutant in HEK293 cells. This maneuver likely triggers runaway phosphorylation of NaV1.5 and thereby furnishes a baseline to discern any potential FHF-dependent change. As expected, we observed an ˜5 fold increase in INa,L in the presence of the PKA Cα subunit (FIGS. 3D and 3E), and a 3-fold increase with CaMKIIT286D (FIGS. 3E and 11B). […] Encouraged by these findings, we dissected the functional role of this modulation in native cardiomyocytes (FIGS. 3F and 3G).
The human NaV1.5 channel corresponds to clone M77235.1 (GenBank) and is subcloned into pGW 1 vector with HindIII and SaII. To facilitate construction of channelopathic mutations in the channel carboxy-terminus, we introduced silent mutations into NaV1.5 to introduce an NruI cutting site near the channel carboxy-terminus (5329-gtggccacg-5337 into 5329-gtCgcGacg-5337). Subsequently, we used overlap-extension PCR and ligated the PCR product into NaV1.5/pGW1 using NruI and XbaI restriction sites (mutations: E1784K, S1904L, IQ/AA, and Q1909R). […]

T1 sequence (Q14524 whole entry): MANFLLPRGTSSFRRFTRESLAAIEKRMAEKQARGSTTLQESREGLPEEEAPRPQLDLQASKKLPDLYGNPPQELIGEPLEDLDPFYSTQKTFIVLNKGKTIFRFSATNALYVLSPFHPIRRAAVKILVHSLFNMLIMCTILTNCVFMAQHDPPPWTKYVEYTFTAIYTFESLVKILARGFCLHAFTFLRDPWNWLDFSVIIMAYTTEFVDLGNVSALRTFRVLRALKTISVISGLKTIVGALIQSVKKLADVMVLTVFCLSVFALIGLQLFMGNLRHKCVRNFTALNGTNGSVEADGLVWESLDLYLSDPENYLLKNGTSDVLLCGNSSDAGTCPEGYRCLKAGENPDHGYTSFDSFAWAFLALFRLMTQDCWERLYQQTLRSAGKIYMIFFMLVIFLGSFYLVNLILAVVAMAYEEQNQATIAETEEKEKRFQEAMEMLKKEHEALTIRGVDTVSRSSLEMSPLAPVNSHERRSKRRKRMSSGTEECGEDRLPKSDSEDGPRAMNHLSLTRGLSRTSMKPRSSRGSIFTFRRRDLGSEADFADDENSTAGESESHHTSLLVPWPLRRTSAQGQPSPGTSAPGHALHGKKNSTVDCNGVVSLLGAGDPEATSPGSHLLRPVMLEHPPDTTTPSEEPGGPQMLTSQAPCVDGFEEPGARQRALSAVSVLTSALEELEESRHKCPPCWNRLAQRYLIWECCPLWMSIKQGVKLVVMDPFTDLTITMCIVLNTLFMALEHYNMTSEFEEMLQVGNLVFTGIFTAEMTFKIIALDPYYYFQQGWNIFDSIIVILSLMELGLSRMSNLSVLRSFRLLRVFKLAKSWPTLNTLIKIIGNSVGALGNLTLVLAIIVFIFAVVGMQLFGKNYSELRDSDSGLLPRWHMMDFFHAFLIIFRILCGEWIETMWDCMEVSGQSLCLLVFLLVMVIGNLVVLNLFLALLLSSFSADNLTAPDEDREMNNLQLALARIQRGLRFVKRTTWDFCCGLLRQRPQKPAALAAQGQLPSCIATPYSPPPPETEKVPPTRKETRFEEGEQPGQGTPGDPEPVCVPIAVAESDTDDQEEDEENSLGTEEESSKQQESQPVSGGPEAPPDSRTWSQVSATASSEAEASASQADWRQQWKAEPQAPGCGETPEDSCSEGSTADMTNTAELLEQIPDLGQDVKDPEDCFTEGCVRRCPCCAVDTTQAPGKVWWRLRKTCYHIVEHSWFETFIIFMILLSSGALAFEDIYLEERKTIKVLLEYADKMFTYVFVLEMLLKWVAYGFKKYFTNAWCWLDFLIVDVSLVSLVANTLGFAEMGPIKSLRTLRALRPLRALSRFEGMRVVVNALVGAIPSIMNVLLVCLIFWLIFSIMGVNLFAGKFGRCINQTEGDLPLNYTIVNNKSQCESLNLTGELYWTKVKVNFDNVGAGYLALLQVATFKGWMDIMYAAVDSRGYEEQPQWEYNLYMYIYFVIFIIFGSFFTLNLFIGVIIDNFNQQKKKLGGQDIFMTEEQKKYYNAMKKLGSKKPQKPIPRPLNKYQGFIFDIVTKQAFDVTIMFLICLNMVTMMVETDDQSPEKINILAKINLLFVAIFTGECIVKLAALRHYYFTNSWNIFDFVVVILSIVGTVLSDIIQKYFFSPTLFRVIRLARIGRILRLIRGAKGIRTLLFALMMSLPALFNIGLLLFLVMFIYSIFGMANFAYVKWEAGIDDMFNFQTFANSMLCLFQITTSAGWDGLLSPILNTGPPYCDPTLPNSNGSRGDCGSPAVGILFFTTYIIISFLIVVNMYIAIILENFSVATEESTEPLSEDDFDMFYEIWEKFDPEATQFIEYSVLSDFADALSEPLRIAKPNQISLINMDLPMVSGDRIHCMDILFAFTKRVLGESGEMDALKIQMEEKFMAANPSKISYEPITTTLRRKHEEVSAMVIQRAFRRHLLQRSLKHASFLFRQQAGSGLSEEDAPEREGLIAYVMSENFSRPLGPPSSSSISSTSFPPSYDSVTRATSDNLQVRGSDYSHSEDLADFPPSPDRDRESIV

In the case of “FixR: minimal 39-amino-acid FHF1A amino-terminal effector domain, MAAAIASSLIRQKRQARESNSDRVSASKRRSSPSKDGRS (SEQ ID NO: 4), expressed as peptide”, the “change in phosphorylation-dependent INa,L” value (INa,L upregulated by CaMKIIT286D) is reported as “reduces INa,L” and the “change in phosphorylation-dependent INa,L” value (INa,L upregulated by PKA catalytic subunit (PKAcat)) is reported as “reduces INa,L”.
